Laboratory results as given in paper PMC4627230, “Identification of TAX2 peptide as a new unpredicted anti-cancer agent” (Oncotarget, 2015).

Target: T1, CD36, endogenous in HUVECs (human (endogenous in HUVECs), UniProt P16671 1-472)
T1 construct: CD36, endogenous in HUVECs; immunoprecipitated with anti-CD36; also called CD36-containing complexes; source: endogenous, HUVEC whole cell extracts
Assay: co-IP; antibody (anti-CD47 B6H12, anti-CD36, anti-FGF2, anti-VEGF, anti-β1 integrin, anti-LRP1 heavy chain) covalently coupled to resin (Pierce Co-IP kit), incubated with whole HUVEC protein lysate (or conditioned media) overnight at 4°C, no cross-linker; cells treated with 100 μM TAX2 or control peptide; for VEGFR2 also 30 ng/mL VEGF for 5 min; immunoblot
Details: partners not purified

T1 sequence (P16671 whole entry): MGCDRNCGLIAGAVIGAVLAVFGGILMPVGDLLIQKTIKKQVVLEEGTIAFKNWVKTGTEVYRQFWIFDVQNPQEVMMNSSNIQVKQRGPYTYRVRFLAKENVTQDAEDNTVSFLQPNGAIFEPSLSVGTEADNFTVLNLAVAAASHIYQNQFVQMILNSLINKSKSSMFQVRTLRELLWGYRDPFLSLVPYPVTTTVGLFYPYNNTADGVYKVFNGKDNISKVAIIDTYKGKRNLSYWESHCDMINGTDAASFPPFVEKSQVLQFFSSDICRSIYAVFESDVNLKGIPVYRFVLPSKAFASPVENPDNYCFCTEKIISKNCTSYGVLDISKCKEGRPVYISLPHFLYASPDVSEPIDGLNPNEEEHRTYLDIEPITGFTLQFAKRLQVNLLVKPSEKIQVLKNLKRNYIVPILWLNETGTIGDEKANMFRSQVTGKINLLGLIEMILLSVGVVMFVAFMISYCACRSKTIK

fold increase of co-immunoprecipitated TSP-1 with TAX2 (100 μM) against control: 3 fold
B1: thrombospondin-1 (TSP-1), endogenous in HUVECs (natural protein)
chain: not shown
notes: thrombospondin-1, endogenous in human umbilical vein endothelial cells; detected by anti-TSP-1 (clone A6.1); source: endogenous, HUVEC protein lysate or conditioned media
